In US9730926B2, “Combination therapy using bispecific anti-c-Met/anti-EGFR antibody and c-Src inhibitor” (Samsung Electronics Co., Ltd., priority 2014, dated 2017):

Columns and labels:
[1] = tested on: EGFR T790M mutated non-small cell lung cancer cell line (H1975); conditions: FIGS. 17 to 19; for cell proliferation, co-treatment with bispecific antibody compared to c-Src inhibitor alone: c-Src inhibitor 10, 100, 1000 nM + 5 μg/ml ME22S, HGF and EGF 100 ng/ml, 72 hours; for dose dependence of the synergistic effect by co-treatment with bispecific antibody: c-Src inhibitor concentration varied, ME22S 5 μg/ml
Experimental: (§1) The cells were stored in RPMI1640 medium (GIBCO) containing 10%(v/v) FBS under the conditions of 5% CO2 and 37° C., until being used in the following experiments. A cell proliferation assay was performed as follows.
(§2) In detail, RPMI1640 medium (GIBCO) containing 10% FBS was added to 96-well plate.
(§3) At 72 hours after the treatment, 10 μL of Cell Counting Kit-8 solution (Dojindo Molecular Technologies, Gaithersburg, Md.) was added to each well, and left at room temperature for 2 hours.

[2] = tested on: K-Ras mutated colorectal cancer cell line (Lovo cell line); assay: Cell proliferation assay (Cell Counting Kit-8), Lovo cell line; assay type: cell-based; conditions: for cell proliferation, co-treatment with ME22S compared to c-Src inhibitor alone: c-Src inhibitor 10, 100, 1000 nM + 5 μg/ml ME22S
[3] = tested on: K-Ras mutated colorectal cancer cell line (HCT-116 cell line); assay: Cell proliferation assay (Cell Counting Kit-8), HCT-116 cell line; assay type: cell-based; conditions: for cell proliferation, co-treatment with ME22S compared to c-Src inhibitor alone: dasatinib 10-1000 nM or saracatinib 10-10000 nM + 5 μg/ml ME22S
Experimental: as §1
RPMI1640 medium (GIBCO) containing 10% FBS was added to 96-well plate.
as §3, §2

[4] = tested on: EGFR T790M mutated non-small cell lung cancer cell line (H820 cell line); assay: Cell proliferation assay (Cell Counting Kit-8), H820 cell line; assay type: cell-based
Description: The H820 cell line was obtained from ATCC. The H820 cells comprise EGFR T790M mutation.

[5] = tested on: K-Ras mutated colorectal cancer cell line (Lovo cell line); assay: Cell proliferation assay (Cell Counting Kit-8), Lovo cell line; assay type: cell-based; conditions: FIG. 4, FIG. 5
Experimental: To examine the cell proliferation inhibition effect depending on the amount of a bispecific anti-c-Met/anti-EGFR antibody, the experiment was carried out by varying the amount of the treated bispecific anti-c-Met/anti-EGFR antibody with fixing the amount of dasatini as 30 nM.
This experiment was conducted referring to the experiment of the cell proliferation test depending on the amount of the antibody as described above, except the amount of the treated antibody and the c-Src inhibitor.

[6] = 5 μg/ml alone, HGF and EGF 100 ng/ml, 72 hours

Molecule: COc1cc(Nc2c(C#N)cnc3cc(OCCCN4CCN(C)CC4)c(OC)cc23)c(Cl)cc1Cl [bosutinib, 4-[(2,4-dichloro-5-methoxyphenyl)amino]-6-methoxy-7-[3-(4-methylpiperazin-1-yl)propoxy]quinoline-3-carbonitrile]
- cell proliferation, co-treatment with bispecific antibody compared to c-Src inhibitor alone [1]: significantly synergistic therapeutic effect
- dose dependence of the synergistic effect by co-treatment with bispecific antibody [1]: generally dose-dependent for the c-Src inhibitor

Molecule: Cc1nc(Nc2ncc(C(=O)Nc3c(C)cccc3Cl)s2)cc(N2CCN(CCO)CC2)n1 [dasatinib, N-(2-chloro-6-methylphenyl)-2-[[6-[4-(2-hydroxyethyl)-1-piperazinyl]-2-methyl-4-pyrimidinyl]amino]-5-thiazole carboxamide monohydrate, reference compound]
- cell proliferation, co-treatment with ME22S compared to c-Src inhibitor alone ([2]; 72 hours, FIG. 6, FIG. 7): more synergistic therapeutic effect
- cell proliferation, co-treatment with ME22S compared to c-Src inhibitor alone ([3]; 72 hours, FIG. 14, FIG. 15): significantly synergistic therapeutic effect

Molecule: CN1CCN(CCOc2cc(OC3CCOCC3)c3c(Nc4c(Cl)ccc5c4OCO5)ncnc3c2)CC1 [saracatinib, 4-Quinazolinamine, N-(5-Chloro-1,3-benzodioxol-4-yl)-7-[2-(4-methyl-1-piperazinyl)ethoxy]-5-[(tetrahydro-2H-pyran-4-yl)oxy]-4-quinazolinamine]
- cell proliferation, co-treatment with ME22S compared to c-Src inhibitor alone ([2]; 72 hours, FIG. 6, FIG. 7): more synergistic therapeutic effect
- dose dependence of the synergistic effect by co-treatment with ME22S ([2]; c-Src inhibitor concentration varied, ME22S fixed at 5 μg/ml, FIG. 6, FIG. 7): generally dose-dependent for the c-Src inhibitor
- dose dependence of the synergistic effect by co-treatment with ME22S ([3]; c-Src inhibitor concentration varied, ME22S 5 μg/ml, FIG. 14, FIG. 15): generally dose-dependent for the c-Src inhibitor
- cell proliferation, co-treatment with ME22S compared to c-Src inhibitor alone ([3]; 72 hours, FIG. 14, FIG. 15): significantly synergistic therapeutic effect
- cell proliferation, co-treatment with bispecific antibody compared to c-Src inhibitor alone [1]: significantly synergistic therapeutic effect
- dose dependence of the synergistic effect by co-treatment with bispecific antibody [1]: generally dose-dependent for the c-Src inhibitor

B1: ME-19: bispecific anti-c-Met/anti-EGFR antibody: anti-EGFR DARPin fused to C-terminus of L3-1Y heavy chain through (G4S)2 linker (antibody)
heavy: EVQLVESGGGLVQPGGSLRLSCAASGFTFTDYYMSWVRQAPGKGLEWLGFIRNKANGYTTEYSASVKGRFTISRDNSKNTLYLQMNSLRAEDTAVYYCARDNWFAYWGQGTLVTVSSASTKGPSVFPLAPCSRSTSESTAALGCLVKDYFPEPVTVSWNSGALTSGVHTFPAVLQSSGLYSLSSVVTVPSSNFGTQTYTCNVDHKPSNTKVDKTVERKCCVECPPCPAPPVAGPSVFLFPPKPKDTLMISRTPEVTCVVVDVSHEDPEVQFNWYVDGVEVHNAKTKPREEQFNSTFRVVSVLTVVHQDWLNGKEYKCKVSNKGLPAPIEKTISKTKGQPREPQVYTLPPSREEMTKNQVSLTCLVKGFYPSDIAVEWESNGQPENNYKTTPPMLDSDGSFFLYSKLTVDKSRWQQGNVFSCSVMHEALHNHYTQKSLSLSPGKGGGGSGGGGSDLGKKLLEAARAGQDDEVRILMANGADVNADDTWGWTPLHLAAYQGHLEIVEVLLKNGADVNAYDYIGWTPLHLAADGHLEIVEVLLKNGADVNASDYIGDTPLHLAAHNGHLEIVEVLLKHGADVNAQDKFGKTAFDISIDNGNEDLAEILQ
light: DIQMTQSPSSLSASVGDRVTITCKSSQSLLASGNQNNYLAWYQQKPGKAPKMLIIWASTRVSGVPSRFSGSGSGTDFTLTISSLQPEDFATYYCQQSYSRPYTFGQGTKVEIKRTVAAPSVFIFPPSDEQLKSGTASVVCLLNNFYPREAKVQWKVDNALQSGNSQESVTEQDSKDSTYSLSSTLTLSKADYEKHKVYACEVTHQGLSSPVTKSFNRGEC
- cell proliferation, bispecific antibody + dasatinib compared to co-treatment of dasatinib, L3-1Y and erbitux ([2]; 5 μg/ml antibody + 30 nM dasatinib, 72 hours): considerable inhibition effect on cancer cell proliferation
- cell proliferation, combination with dasatinib compared to the drugs alone ([2]; 5 μg/ml antibody + 30 nM dasatinib, HGF and EGF 100 ng/ml, 72 hours, FIG. 2, FIG. 3): considerable inhibitory effect on the cell proliferation
- cell proliferation, co-treatment with c-Src inhibitor compared to either alone ([4]; ME19 0.01, 0.1, 1 or 10 μg/ml + dasatinib 30 nM, 72 hours, FIG. 10): more considerable inhibition effect on the cell proliferation
- dose dependence of the inhibition effect on cell proliferation ([4]; ME19 concentration varied, dasatinib 30 nM, FIG. 10): generally dose-dependent for the bispecific anti-c-Met/anti-EGFR antibody
- cell proliferation, bispecific antibody + dasatinib compared to co-treatment of dasatinib, L3-1Y and erbitux ([3]; 5 μg/ml ME19 + 5 nM dasatinib, 72 hours, FIG. 13): considerable inhibition effect on cancer cell proliferation
- cell proliferation, co-treatment with dasatinib compared to each of the drugs ([3]; 5 μg/ml ME19 + 5 nM dasatinib, HGF and EGF 100 ng/ml, 72 hours, FIG. 13): more considerable cell proliferation inhibition effect
- cell proliferation, co-treatment with dasatinib compared to bispecific antibody alone ([5]; ME-19 10, 1, 0.1, 0.01 μg/ml or ME22S 1, 0.1, 0.01 μg/ml + 30 nM dasatinib, 72 hours): more synergistic therapeutic effect
- dose dependence of the synergistic effect by co-treatment with dasatinib ([5]; antibody concentration varied, dasatinib fixed at 30 nM): dose-dependent for the antibody

B2: L3-1Y: anti-c-Met antibody: huAbF46-H4-A1 variable regions, human IgG2 hinge and constant region, human kappa light chain (antibody)
heavy: EVQLVESGGGLVQPGGSLRLSCAASGFTFTDYYMSWVRQAPGKGLEWLGFIRNKANGYTTEYSASVKGRFTISRDNSKNTLYLQMNSLRAEDTAVYYCARDNWFAYWGQGTLVTVSSASTKGPSVFPLAPCSRSTSESTAALGCLVKDYFPEPVTVSWNSGALTSGVHTFPAVLQSSGLYSLSSVVTVPSSNFGTQTYTCNVDHKPSNTKVDKTVERKCCVECPPCPAPPVAGPSVFLFPPKPKDTLMISRTPEVTCVVVDVSHEDPEVQFNWYVDGVEVHNAKTKPREEQFNSTFRVVSVLTVVHQDWLNGKEYKCKVSNKGLPAPIEKTISKTKGQPREPQVYTLPPSREEMTKNQVSLTCLVKGFYPSDIAVEWESNGQPENNYKTTPPMLDSDGSFFLYSKLTVDKSRWQQGNVFSCSVMHEALHNHYTQKSLSLSPGK
light: DIQMTQSPSSLSASVGDRVTITCKSSQSLLASGNQNNYLAWYQQKPGKAPKMLIIWASTRVSGVPSRFSGSGSGTDFTLTISSLQPEDFATYYCQQSYSRPYTFGQGTKVEIKRTVAAPSVFIFPPSDEQLKSGTASVVCLLNNFYPREAKVQWKVDNALQSGNSQESVTEQDSKDSTYSLSSTLTLSKADYEKHKVYACEVTHQGLSSPVTKSFNRGEC
- cell proliferation, L3-1Y in combination with erbitux ([2]; 5 μg/ml L3-1Y + 5 μg/ml erbitux, HGF and EGF 100 ng/ml, 72 hours): increased cell proliferation
- cell proliferation, antibody alone [2, 6]: increased cell proliferation
- cell proliferation, L3-1Y in combination with erbitux ([4]; 5 μg/ml L3-1Y + 5 μg/ml erbitux, 72 hours): increased cell proliferation
- cell proliferation, antibody alone [4, 6]: increased cell proliferation
